Source: the supplement of paper PMC9732359
± gives the uncertainty stated by the source.

Assay: protein stability index of a GFP-peptide fusion (yeast GPS) (PSI 1-4); higher = more stable; sorted into four equal gates, so the index is relative within each strain
Method in brief: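 Yeast carrying a pooled library were grown to mid-log phase in leucine-free medium. Each library plasmid expresses Cherry and has a tiled 17-residue yeast protein peptide fused downstream of GFP. Cells were sorted into four equal gates by GFP/Cherry ratio, and plasmids from each gate were PCR-amplified, Illumina-sequenced and assigned to strains by barcode. Summing, across gates, the read frequency times the gate number gave each peptide's protein stability index.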

| Sequence | protein stability index (doa10∆) | protein stability index (pdr5∆) | protein stability index (san1∆) | protein stability index (ubr1∆) |
| --- | --- | --- | --- | --- |
| QVGERIKQTFKNDLFVI [RPO21] | 2.38 ± 0.066 | 2.36 ± 0.07 | 2.56 ± 0.06 | 2.49 ± 0.064 |
| DIVSIDIEEPQLDLLDD [MTW1] | 2.66 ± 0.098 | 3.17 ± 0.097 | 3.25 ± 0.05 | 3.16 ± 0.048 |
| RITKSNEKSQAEQEKAK [LRP1] | 1.9 ± 0.075 | 1.33 ± 0.067 | 1.48 ± 0.18 | 1.25 ± 0.14 |
| SQEREFSLLVKAEIPPE [SIN4] | 3.04 ± 0.1 | 2.98 ± 0.072 | 2.96 ± 0.073 | 2.83 ± 0.061 |
| SKNRIIVEADEKKGIVQ [RET1] | 1.21 ± 0.14 | 1.47 ± 0.061 | – | 1.59 ± 0.077 |
| NNNQKIDDNYIVVVIEI [SRB8] | 3.16 ± 0.078 | 3.01 ± 0.065 | 3.29 ± 0.083 | 3.11 ± 0.1 |
| QEQVYPDFKPWEHTAAE [SRB8] | 2.44 ± 0.16 | 2.94 ± 0.13 | 3.17 ± 0.076 | 2.93 ± 0.11 |
| LSSELDSNKTLLHNHLK [SMC2] | 3.21 ± 0.059 | 3.26 ± 0.058 | 3.17 ± 0.048 | 3.2 ± 0.039 |
| VGVIIFILTIATAFLGY [COB] | 2.31 ± 0.07 | 1.84 ± 0.052 | 1.82 ± 0.072 | 2.63 ± 0.039 |
| NIRNNIESQNLDLIPHS [SRB4] | 2.62 ± 0.052 | 2.92 ± 0.046 | 2.62 ± 0.05 | 2.7 ± 0.029 |
| VKGTNISEKDLVPKRCL [RPO31] | 2.63 ± 0.12 | 3.39 ± 0.13 | 3.42 ± 0.082 | 3.12 ± 0.09 |
| GEMERDCMIAHGAASFL [RPB2] | 3.04 ± 0.13 | 3.08 ± 0.085 | 3.04 ± 0.073 | 2.76 ± 0.089 |
| DPNEVKYLYLRAVGGEV [RPL12A] | 1.77 ± 0.073 | 1.89 ± 0.12 | 1.98 ± 0.18 | 1.53 ± 0.039 |
| VVDQLWSEISNELPDIE [RPN2] | 2.38 ± 0.12 | 2.94 ± 0.1 | 2.75 ± 0.12 | 2.69 ± 0.046 |
| LNELSAKDKEIYNKMIG [RPN13] | 2.8 ± 0.092 | 2.65 ± 0.11 | 2.2 ± 0.11 | 2.83 ± 0.082 |
| LQPPKTSSRGRDHKSYS [SMC4] | 2.9 ± 0.056 | 3.21 ± 0.061 | 3 ± 0.071 | 2.86 ± 0.049 |
| KKKAFTKYSAKYAQDGA [RPL3] | 3.03 ± 0.12 | 3.38 ± 0.09 | 3.1 ± 0.054 | 3.04 ± 0.032 |
| KKEEKLNIGKNFAHSDS [SIR4] | 3.18 ± 0.059 | 2.97 ± 0.057 | 3.12 ± 0.033 | 3.11 ± 0.037 |
| LTDHRKETWLHELSSSH [SRB8] | – | 3.58 ± 0.19 | – | 2.76 ± 0.14 |
| VNAMRVLYYRDARSSRN [PRE4] | – | 3.16 ± 0.23 | 2.57 ± 0.26 | – |
| RDDGKRELLVEGYGLRD [RPO31] | 2.4 ± 0.079 | 2.56 ± 0.072 | 2.72 ± 0.077 | 2.74 ± 0.068 |
| VAGGKKALAIFVPVPSL [RPS7A] | 2.49 ± 0.056 | 1.53 ± 0.047 | 1.7 ± 0.088 | 1.54 ± 0.043 |
| VKPISIEAPQFYRYWSA [SWI3] | 2.23 ± 0.036 | 2.09 ± 0.036 | 1.85 ± 0.055 | 2.02 ± 0.032 |
| LELRNSVMDDILEMMPE [PRP8] | 3.53 ± 0.12 | 3.26 ± 0.12 | 3.15 ± 0.09 | 3.37 ± 0.068 |
| EFENKFQNSYKPALKVS [YMR129W/POM152] | – | 3.11 ± 0.22 | 3.04 ± 0.2 | – |
| NYELEKIADNISKDENE [YDL116W/NUP84] | 3.03 ± 0.09 | 3.04 ± 0.077 | 2.98 ± 0.048 | 3.14 ± 0.055 |
| VASLVLARGHRVEKIPE [RPL4A] | – | 3.4 ± 0.24 | – | – |

| Sequence | protein stability index (doa10∆) | protein stability index (pdr5∆) | protein stability index (san1∆) | protein stability index (ubr1∆) |
| --- | --- | --- | --- | --- |
| GSSGGVIRMVVLTAAGV [PRE3] | 2.33 ± 0.086 | 1.74 ± 0.075 | 2.64 ± 0.12 | 1.74 ± 0.049 |
| FPQTAMLRRHAAPPSTN [DIS3] | 1.89 ± 0.1 | 1.93 ± 0.12 | – | 1.74 ± 0.07 |
| ETEKFALERNWPIVNSK [RPN12] | 3.19 ± 0.095 | 3.25 ± 0.12 | 3.13 ± 0.069 | 3.11 ± 0.086 |
| QSKIDLTKKKNEEINKK [SEM1] | – | 3.47 ± 0.24 | 2.87 ± 0.14 | 3.21 ± 0.076 |
| DGHLRAPLKHGVGILYK [BRR2] | 1.31 ± 0.055 | 2.33 ± 0.08 | 1.58 ± 0.2 | 1.26 ± 0.07 |
| NKQYHQANSNLTLLERK [NUT1] | 2.34 ± 0.054 | 2.77 ± 0.055 | 2.59 ± 0.082 | 2.83 ± 0.066 |
| YSIFLENENILIKAKNF [SMC1] | 1.21 ± 0.092 | 1.22 ± 0.11 | – | 1.14 ± 0.1 |
| QEMIEISNVIKPNQTIM [SRP54] | 2.62 ± 0.23 | 2.21 ± 0.079 | – | 1.96 ± 0.1 |
| AYIKLLDQTKDTRITHL [SNF2] | 2.65 ± 0.085 | 3.03 ± 0.072 | 2.78 ± 0.06 | 2.39 ± 0.062 |
| GNSGVVRATFRNNLPAK [RPL33A] | 2.88 ± 0.085 | 3.17 ± 0.12 | 3.19 ± 0.099 | 3.22 ± 0.067 |
| EKSTQLQQKHELDTASR [YGR119C/NUP57] | 2.95 ± 0.044 | 3.06 ± 0.039 | 2.85 ± 0.029 | 3.21 ± 0.031 |
| LRHMPLASIPDIFITPT [SSN2] | 1.78 ± 0.054 | 1.69 ± 0.054 | 1.47 ± 0.068 | 1.61 ± 0.043 |
| KGKYRNRRWTQRRGPLV [RPL4A] | 2.97 ± 0.17 | 3.29 ± 0.18 | – | – |
| QKKILSIRLKVPPTIAQ [RPL8A] | 1.53 ± 0.037 | 1.66 ± 0.037 | 1.5 ± 0.06 | 1.69 ± 0.029 |
| NLRTQVTQQKRSLDENR [SMC1] | 3.24 ± 0.12 | 3.09 ± 0.066 | 2.91 ± 0.092 | 3.07 ± 0.086 |
| EKPLTPLKYTKLIAAAE [SNF6] | 1.25 ± 0.23 | 1.27 ± 0.12 | 1.22 ± 0.21 | 1.15 ± 0.2 |
| SNSDNCPEEFAESMCQE [SNF5] | 3.25 ± 0.065 | 3.33 ± 0.069 | 3.27 ± 0.041 | 3.01 ± 0.068 |
| ASELDESKDSIQDLIVK [SMC3] | 3.3 ± 0.085 | 3.04 ± 0.12 | 3.18 ± 0.13 | 3.33 ± 0.14 |
| LPMDTNLFKINSIDVPI [YMR129W/POM152] | 1.98 ± 0.048 | 1.92 ± 0.035 | 2.49 ± 0.062 | 1.95 ± 0.045 |
| QIKEIKEVIELPVKHPE [RPT6] | 2.98 ± 0.074 | 3.13 ± 0.088 | 3.27 ± 0.078 | 3.2 ± 0.075 |
| NLAPKLRNVFLGKCSRI [GRR1] | 2.7 ± 0.048 | 2.43 ± 0.049 | 2.58 ± 0.041 | 2.29 ± 0.049 |
| AQYGIKALPIRRDDEVL [RPL26A] | 3.63 ± 0.18 | 3.32 ± 0.17 | 3.43 ± 0.061 | 3.28 ± 0.14 |
| SSNIVNENDSQAIITER [YIL149C/MLP2] | 3.14 ± 0.12 | 2.93 ± 0.086 | 2.07 ± 0.26 | 2.86 ± 0.057 |
| LFGGRHYLFNTFTFTAH [SWP82] | 2.03 ± 0.042 | 2.1 ± 0.035 | 1.69 ± 0.061 | 1.82 ± 0.024 |
| GLMLGEFVDDYTVNVVD [RPN11] | 3.32 ± 0.13 | 3.26 ± 0.1 | 3.13 ± 0.14 | 3.09 ± 0.076 |
| TVRLVNLFSSTGFKGLL [SRB2] | 2.31 ± 0.073 | 2.73 ± 0.055 | 2.76 ± 0.06 | 2.9 ± 0.039 |
| TTIEEIFLHSLPVKEFQ [RPS2] | 2.82 ± 0.067 | 2.78 ± 0.069 | 3.01 ± 0.067 | 2.79 ± 0.073 |
